Paper PMC10401628

Target: human α-synuclein E57K mutant (6xHis:α-Syn-E57K) (human) (UniProt P37840)

Sequence of bacterial Hsp90 chaperone with C-terminal hexahistidine (Hsp90:6xHis) (P0A6Z3 whole entry): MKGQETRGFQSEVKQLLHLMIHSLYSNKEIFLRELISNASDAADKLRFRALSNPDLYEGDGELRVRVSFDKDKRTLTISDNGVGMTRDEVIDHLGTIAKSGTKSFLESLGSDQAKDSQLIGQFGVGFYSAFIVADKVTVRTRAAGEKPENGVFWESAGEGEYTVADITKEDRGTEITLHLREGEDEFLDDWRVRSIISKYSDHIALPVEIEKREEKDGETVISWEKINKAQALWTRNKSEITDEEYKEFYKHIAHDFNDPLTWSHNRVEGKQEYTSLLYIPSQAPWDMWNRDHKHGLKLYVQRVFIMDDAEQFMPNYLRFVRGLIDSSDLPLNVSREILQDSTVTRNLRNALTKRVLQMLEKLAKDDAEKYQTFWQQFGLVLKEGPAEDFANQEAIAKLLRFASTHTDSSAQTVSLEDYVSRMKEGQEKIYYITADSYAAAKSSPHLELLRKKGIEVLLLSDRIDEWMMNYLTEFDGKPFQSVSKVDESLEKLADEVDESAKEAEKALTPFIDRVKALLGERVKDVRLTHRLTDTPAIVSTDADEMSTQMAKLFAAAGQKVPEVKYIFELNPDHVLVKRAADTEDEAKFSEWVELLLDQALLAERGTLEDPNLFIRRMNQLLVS

bacterial Hsp90 chaperone with C-terminal hexahistidine (Hsp90:6xHis) (from UniProt P0A6Z3 1-624) (natural protein)
insoluble fraction of α-Syn-E57K after incubation under amyloidogenic conditions with free Hsp90 (18.42% without Hsp90); centrifugation, SDS-PAGE, band quantification: 5.67%
